Test system: (GR)10
Experiment: Cleavage of (GR)10 by enzymes in solution (PBS with CaCl2 and MgCl2), LC/MS of GR repeats
Assay type: biochemical
Settings: for (GR)1 concentration / (GR)2 concentration / (GR)3 concentration / (GR)4 concentration / (GR)5 concentration / (GR)6 concentration / (GR)8 concentration / (GR)10 concentration: (GR)10 50 μM; for (GR)1 / (GR)2 / (GR)3 / (GR)4 / (GR)5 / (GR)6 / (GR)8 / (GR)10: PBS, normalized
Procedure: • (GR)10 dipeptide (also (GR)8, (GR)6, (GR)4, (GR)2) were synthetized by solid-phase synthesis by CanPeptide; All peptides are uncapped and supplied lyophilized with TFA as counter ions. Purity was always above 95%. • Buffer: PBS buffer containing CaCl2 and MgCl2. • Stock solution of enzyme (e.g., 10 mg/mL) (prepared per manufacturer instructions) in PBS. Activators added as necessary. • Working solution of protein of the desired concentration (e.g., 100 μg/mL) prepared immediately before use by diluting the stock solution (e.g., 5 μL of 10 mg/mL stock solution) in PBS buffer (e.g., in 495 μL of PBS). Exemplary Procedure Using 50 μM Concentrations of (GR)10
25 μL of a 100 μM solution of (GR)10 was added to each well of a 96-well plate. 25 μL of a solution of enzyme (two times the desired final enzyme concentration) was added, and the plates were incubated at room temperature. At the specified time points (5 minutes, 10 minutes, 30 minutes, 60 minutes, and 180 minutes) 2.5 μL of a 10% TFA solution were added to stop the reaction. For the time 0 min well, the TFA was added to the well before addition of the enzyme. After last time point, all samples were further diluted with 150 μL of dilution solution. The quenched reaction mixtures were analyzed by LC/MS to determine the concentration of GR repeats of different lengths.
The chromatography and mass spectrometry conditions utilized are shown in Table 2 and Table 3, respectively.

B1: Trypsin: protease cleaving at the carboxyl side of lysine or arginine; in Table 21 also immobilized in-house on NHS-activated agarose resin (protein, UniProt P00760 24-246, looked up)
Serine protease 1: IVGGYTCGANTVPYQVSLNSGYHFCGGSLINSQWVVSAAHCYKSGIQVRLGEDNINVVEGNEQFISASKSIVHPSYNSNTLNNDIMLIKLKSAASLNSRVASISLPTSCASAGTQCLISGWGNTKSSGTSYPDVLKCLKAPILSDSSCKSAYPGQITSNMFCAGYLEGGKDSCQGDSGGPVVCSGKLQGIVSWGSGCAQKNKPGVYTKVCNYVSWIKQTIASN
- (GR)1 concentration (enzyme 2.5 μg/mL, 0 min): BLQ
- (GR)2 concentration (enzyme 2.5 μg/mL, 0 min): BLQ
- (GR)3 concentration (enzyme 2.5 μg/mL, 0 min): BLQ
- (GR)4 concentration (enzyme 2.5 μg/mL, 0 min): BLQ
- (GR)5 concentration (enzyme 2.5 μg/mL, 0 min): BLQ
- (GR)6 concentration (enzyme 2.5 μg/mL, 0 min): BLQ
- (GR)8 concentration (enzyme 2.5 μg/mL, 0 min): 0.5 µM
- (GR)10 concentration (enzyme 2.5 μg/mL, 0 min): 52.8 µM
- (GR)1 concentration (enzyme 2.5 μg/mL, 5 min): 114.3 µM
- (GR)2 concentration (enzyme 2.5 μg/mL, 5 min): 157.8 µM
- (GR)3 concentration (enzyme 2.5 μg/mL, 5 min): 0.1 µM
- (GR)4 concentration (enzyme 2.5 μg/mL, 5 min): BLQ
- (GR)5 concentration (enzyme 2.5 μg/mL, 5 min): BLQ
- (GR)6 concentration (enzyme 2.5 μg/mL, 5 min): BLQ
- (GR)8 concentration (enzyme 2.5 μg/mL, 5 min): 0.1 µM
- (GR)10 concentration (enzyme 2.5 μg/mL, 5 min): 2.2 µM
- (GR)1 concentration (enzyme 2.5 μg/mL, 10 min): 124.7 µM
- (GR)2 concentration (enzyme 2.5 μg/mL, 10 min): 167.7 µM
- (GR)3 concentration (enzyme 2.5 μg/mL, 10 min): 0.1 µM
- (GR)4 concentration (enzyme 2.5 μg/mL, 10 min): BLQ
- (GR)5 concentration (enzyme 2.5 μg/mL, 10 min): BLQ
- (GR)6 concentration (enzyme 2.5 μg/mL, 10 min): BLQ
- (GR)8 concentration (enzyme 2.5 μg/mL, 10 min): BLQ
- (GR)10 concentration (enzyme 2.5 μg/mL, 10 min): BLQ
- (GR)1 concentration (enzyme 2.5 μg/mL, 30 min): 137.7 µM
- (GR)2 concentration (enzyme 2.5 μg/mL, 30 min): 144.9 µM
- (GR)3 concentration (enzyme 2.5 μg/mL, 30 min): BLQ
- (GR)4 concentration (enzyme 2.5 μg/mL, 30 min): BLQ
- (GR)5 concentration (enzyme 2.5 μg/mL, 30 min): BLQ
- (GR)6 concentration (enzyme 2.5 μg/mL, 30 min): BLQ
- (GR)8 concentration (enzyme 2.5 μg/mL, 30 min): BLQ
- (GR)10 concentration (enzyme 2.5 μg/mL, 30 min): BLQ
- (GR)1 concentration (enzyme 2.5 μg/mL, 60 min): 163.2 µM
- (GR)2 concentration (enzyme 2.5 μg/mL, 60 min): 134.1 µM
- (GR)3 concentration (enzyme 2.5 μg/mL, 60 min): BLQ
- (GR)4 concentration (enzyme 2.5 μg/mL, 60 min): BLQ
- (GR)5 concentration (enzyme 2.5 μg/mL, 60 min): BLQ
- (GR)6 concentration (enzyme 2.5 μg/mL, 60 min): BLQ
- (GR)8 concentration (enzyme 2.5 μg/mL, 60 min): BLQ
- (GR)10 concentration (enzyme 2.5 μg/mL, 60 min): BLQ
- (GR)1 concentration (enzyme 2.5 μg/mL, 120 min): 215.2 µM
- (GR)2 concentration (enzyme 2.5 μg/mL, 120 min): 107.7 µM
- (GR)3 concentration (enzyme 2.5 μg/mL, 120 min): BLQ
- (GR)4 concentration (enzyme 2.5 μg/mL, 120 min): BLQ
- (GR)5 concentration (enzyme 2.5 μg/mL, 120 min): BLQ
- (GR)6 concentration (enzyme 2.5 μg/mL, 120 min): BLQ
- (GR)8 concentration (enzyme 2.5 μg/mL, 120 min): BLQ
- (GR)10 concentration (enzyme 2.5 μg/mL, 120 min): BLQ
- (GR)1 concentration (enzyme 10 μg/mL, 0 min): 0.1 µM
- (GR)2 concentration (enzyme 10 μg/mL, 0 min): BLQ
- (GR)3 concentration (enzyme 10 μg/mL, 0 min): BLQ
- (GR)4 concentration (enzyme 10 μg/mL, 0 min): BLQ
- (GR)5 concentration (enzyme 10 μg/mL, 0 min): BLQ
- (GR)6 concentration (enzyme 10 μg/mL, 0 min): BLQ
- (GR)8 concentration (enzyme 10 μg/mL, 0 min): 0.5 µM
- (GR)10 concentration (enzyme 10 μg/mL, 0 min): 48.9 µM
- (GR)1 concentration (enzyme 10 μg/mL, 5 min): 124.4 µM
- (GR)2 concentration (enzyme 10 μg/mL, 5 min): 138.9 µM
- (GR)3 concentration (enzyme 10 μg/mL, 5 min): BLQ
- (GR)4 concentration (enzyme 10 μg/mL, 5 min): BLQ
- (GR)5 concentration (enzyme 10 μg/mL, 5 min): BLQ
- (GR)6 concentration (enzyme 10 μg/mL, 5 min): BLQ
- (GR)8 concentration (enzyme 10 μg/mL, 5 min): BLQ
- (GR)10 concentration (enzyme 10 μg/mL, 5 min): 2.0 µM
- (GR)1 concentration (enzyme 10 μg/mL, 10 min): 156.5 µM
- (GR)2 concentration (enzyme 10 μg/mL, 10 min): 148.1 µM
- (GR)3 concentration (enzyme 10 μg/mL, 10 min): BLQ
- (GR)4 concentration (enzyme 10 μg/mL, 10 min): BLQ
- (GR)5 concentration (enzyme 10 μg/mL, 10 min): BLQ
- (GR)6 concentration (enzyme 10 μg/mL, 10 min): BLQ
- (GR)8 concentration (enzyme 10 μg/mL, 10 min): BLQ
- (GR)10 concentration (enzyme 10 μg/mL, 10 min): BLQ
- (GR)1 concentration (enzyme 10 μg/mL, 30 min): 212.6 µM
- (GR)2 concentration (enzyme 10 μg/mL, 30 min): 110.1 µM
- (GR)3 concentration (enzyme 10 μg/mL, 30 min): BLQ
- (GR)4 concentration (enzyme 10 μg/mL, 30 min): BLQ
- (GR)5 concentration (enzyme 10 μg/mL, 30 min): BLQ
- (GR)6 concentration (enzyme 10 μg/mL, 30 min): BLQ
- (GR)8 concentration (enzyme 10 μg/mL, 30 min): BLQ
- (GR)10 concentration (enzyme 10 μg/mL, 30 min): BLQ
- (GR)1 concentration (enzyme 10 μg/mL, 60 min): 289.7 µM
- (GR)2 concentration (enzyme 10 μg/mL, 60 min): 58.6 µM
- (GR)3 concentration (enzyme 10 μg/mL, 60 min): BLQ
- (GR)4 concentration (enzyme 10 μg/mL, 60 min): BLQ
- (GR)5 concentration (enzyme 10 μg/mL, 60 min): BLQ
- (GR)6 concentration (enzyme 10 μg/mL, 60 min): BLQ
- (GR)8 concentration (enzyme 10 μg/mL, 60 min): BLQ
- (GR)10 concentration (enzyme 10 μg/mL, 60 min): BLQ
- (GR)1 concentration (enzyme 10 μg/mL, 120 min): 349.9 µM
- (GR)2 concentration (enzyme 10 μg/mL, 120 min): 10.7 µM
- (GR)3 concentration (enzyme 10 μg/mL, 120 min): BLQ
- (GR)4 concentration (enzyme 10 μg/mL, 120 min): BLQ
- (GR)5 concentration (enzyme 10 μg/mL, 120 min): BLQ
- (GR)6 concentration (enzyme 10 μg/mL, 120 min): BLQ
- (GR)8 concentration (enzyme 10 μg/mL, 120 min): BLQ
- (GR)10 concentration (enzyme 10 μg/mL, 120 min): BLQ
- (GR)1 (in solution - 5 min reaction): 178.0 µM
- (GR)2 (in solution - 5 min reaction): 0.0 µM
- (GR)3 (in solution - 5 min reaction): 0.0 µM
- (GR)4 (in solution - 5 min reaction): 0.0 µM
- (GR)5 (in solution - 5 min reaction): 0.0 µM
- (GR)6 (in solution - 5 min reaction): 0.0 µM
- (GR)8 (in solution - 5 min reaction): 0.0 µM
- (GR)10 (in solution - 5 min reaction): 0.0 µM
- (GR)1 (in solution - 60 min reaction): 321.4 µM
- (GR)2 (in solution - 60 min reaction): 154.0 µM
- (GR)3 (in solution - 60 min reaction): 0.0 µM
- (GR)4 (in solution - 60 min reaction): 0.0 µM
- (GR)5 (in solution - 60 min reaction): 0.0 µM
- (GR)6 (in solution - 60 min reaction): 0.0 µM
- (GR)8 (in solution - 60 min reaction): 0.0 µM
- (GR)10 (in solution - 60 min reaction): 0.0 µM

Reference: US11419921B2, “Methods of treating neurological disorders” (EnClear Therapies, Inc., priority 2018, dated 2022)
